# Tested on: Ovalbumin-specific OTII T cells
# Experiment: Adoptive transfer of ovalbumin-specific OTII T cells, Foxp3 expression and total Treg (Example 5)
# Type: in vivo, mice
# Conditions: OTII T cells adoptively transferred prior to treatment
# Experimental: However, expansion of antigen-specific Treg can be more desirable than expansion of total Treg. The ability of ImmTOR plus antigen combined with IL-2 mutein to induce and/or expand antigen-specific Treg was evaluated. Ovalbumin-specific OTII T cells were adoptively transferred into mice prior to treatment with ovalbumin and ImmTOR and/or IL-2 mutein.
molecule,measurement,value
"ovalbumin (protein, UniProt P01012 2-386, looked up, model antigen administered to mice) Ovalbumin: GSIGAASMEFCFDVFKELKVHHANENIFYCPIAIMSALAMVYLGAKDSTRTQINKVVRFDKLPGFGDSIEAQCGTSVNVHSSLRDILNQITKPNDVYSFSLASRLYAEERYPILPEYLQCVKELYRGGLEPINFQTAADQARELINSWVESQTNGIIRNVLQPSSVDSQTAMVLVNAIVFKGLWEKAFKDEDTQAMPFRVTEQESKPVQMMYQIGLFRVASMASEKMKILELPFASGTMSMLVLLPDEVSGLEQLESIINFEKLTEWTSSNVMEERKIKVYLPRMKMEEKYNLTSVLMAMGITDVFSSSANLSGISSAESLKISQAVHAAHAEINEAGREVVGSAEAGVDAASVSEEFRADHPFLFCIKHIATNAVLFFGRCVSP",percentage of Foxp3+ OTII cells,~6%
